The text below walks through data of article PMC9300119, “Proteins DotY and DotZ modulate the dynamics and localization of the type IVB coupling complex of Legionella pneumophila” (Molecular Microbiology, 2021).

First the molecules themselves.
B2: DotZ (natural protein)
chain: MDEIKKDDELSQWLSTYGTITAERILGRYNISLPQDEILEAINIPSSFYRHLLQIPLKNVLNGIVIQQASDYHVYAQKLLIDYLLSGESSKEPDSQGAGTRESLEDERQRLVQLGDEFHKLELEQDNLIASSQASLMKISIDWNTKLETTLSKLNSLYKNTNSKIKKNAIRKALIKAFIHCDLVKDQSQKNKYQLIDKLNQTLAVSVGAELKESILTNLSELFQILEALNTKLDEFTDRTNHLSQQAKSFRTQFYEVILRIIELIKLLPEYKIDPAQDAINREPLYFDRTIGER
notes: also called lpg1549
B4: DotM (natural protein)
chain: MYIEMAQQQQQSGSDNSMAPVWIVILLFITAYFVWALAHQYIVSFVFTINIWQARLVNLFLNNQLLANQIYLMQTLDPNTVNWDQMVTVMRAVGDYMRYPVICILVVLAFVLYNSNVTLKYRKTYDMKSLRAQEQFNWPAIMPIVKEDLVSQDVNKGPWAMALTPMEFARKYNLLRKDDALLDNPVPGEEMTAGIRRGDAKRVFTMQLGPYWDGFERCSPQAYALSAVFMARMNRDRDAANNILKVLDKTFVDGKPDFSVARPVMKKYQNSELVQEVVAKHAYVLTVIASLLEAAREDGVVPSSEFLWLKPVDRRLWYMLNCVGRQTPYSEVAGPFAHWKAEKEMGRRSLVPMIDEAIRALEIAVKEVRLTPRQMEELEP

The target of the assay “DotZ” is B2. As to the kind of experiment: cryo-EM structure. The following applies: both partners purified.
For assay [1], the target named is T1, DotL with a Strep-tag at the C-terminus (Legionella pneumophila (strain Lp01), UniProt Q5ZYC6 1-783).
T1 construct: also called DotL_(Strep); DotL_(strep)
T1 sequence: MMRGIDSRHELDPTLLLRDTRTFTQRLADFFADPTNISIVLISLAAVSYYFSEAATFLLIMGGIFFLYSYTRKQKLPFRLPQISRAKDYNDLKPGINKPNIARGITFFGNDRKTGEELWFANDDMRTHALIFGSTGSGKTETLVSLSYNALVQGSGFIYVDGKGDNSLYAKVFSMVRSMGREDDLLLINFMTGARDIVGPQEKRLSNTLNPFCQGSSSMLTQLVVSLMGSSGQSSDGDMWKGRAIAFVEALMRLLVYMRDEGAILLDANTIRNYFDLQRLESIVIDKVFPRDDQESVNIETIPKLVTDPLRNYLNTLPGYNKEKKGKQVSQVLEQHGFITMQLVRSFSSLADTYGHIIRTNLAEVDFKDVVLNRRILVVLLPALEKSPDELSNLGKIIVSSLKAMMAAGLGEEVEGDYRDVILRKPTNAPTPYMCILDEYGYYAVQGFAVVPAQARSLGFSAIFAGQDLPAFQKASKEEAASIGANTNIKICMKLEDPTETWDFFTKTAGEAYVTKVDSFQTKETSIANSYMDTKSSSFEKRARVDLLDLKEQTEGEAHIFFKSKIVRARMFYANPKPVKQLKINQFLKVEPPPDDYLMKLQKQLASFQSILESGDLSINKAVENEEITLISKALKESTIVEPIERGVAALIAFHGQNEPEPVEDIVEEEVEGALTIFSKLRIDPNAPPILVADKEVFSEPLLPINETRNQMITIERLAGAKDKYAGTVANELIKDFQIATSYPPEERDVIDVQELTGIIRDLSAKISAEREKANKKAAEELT
Put plainly: cryo-EM structure. To be noted: both partners purified.

The target in the assay “DotM” is B4. Put plainly: cryo-EM structure. The following applies: both partners purified.
The target in assay [2] is T1, DotL with a Strep-tag at the C-terminus. Put plainly: affinity purification with mass spectrometry. The following applies: partners not purified.

B1: DotN (natural protein)
chain: MNVNQTMADNQQRCELKLIASPGSWRLYSARKIDERFKSYEQKIFQRDRYTCQFCGFQARLYQDIVNLDGDYTNNRLSNLVTACCFCAQCFFVESVGVGGYGGGTLIYLPELTQAELNSLCHVLFCAITNDTGYKSSAQNIYRSFKFRSQIVEEKFGEGTSDPAIFGQLMIDSGVNSEEIREKLFKNIRLLPSRAKFRKQIEKWAASALEEIAD
On to B1, for which the binding result (with DotZ; in assay [1]) was “binds” in each case. B2: the binding result with DotM is reported as “binds”.

B3: DotY (natural protein)
chain: MPKYTLPTRDALLKAMQVGETSIEAAEYMATRFEQILTKAKLLPECNDMLEKIKEYAQFVKFKLLSSAQVWSGQERPTSDYQNTQENKAEFLASHLEGLPSGLKLEVAIGDDAKILRGFSSNGKMVEGDQLKTMDGLLEGWLAKNSLAISGGAVVKIDNTGNQTKVDPQEIRQLINDSEKGVAKYFADKGVGMEVAQRTYQEPKALETKREEIRQEIESGAEAPTTQSIR
notes: also called lpg0294
Take B3: the binding result in the assay with DotZ is “binds”. In the case of B4, the binding result in assay [2] is given as “binds”.
